Experiments:
BHRF1 = BHRF1 (Epstein-Barr virus, UniProt P03182)
Procedure: Proteins (20 nmol each) were injected in a 200 μl loop in line with a Superdex-75 10/300 column (GE Healthcare) and separated with running buffer (20 mM Tris-Cl pH 7.5, 150 mM NaCl, 1 mM DTT) at room temperature.

Mcl-1 = target: T1, Mcl-1 (Homo sapiens, UniProt Q07820); assay: Bio-layer interferometry (BLI), immobilized Mcl-1; assay type: binding; conditions: BLI; for Kd: lower bound in μM
T1 construct: Mcl-1 a.a; made in house; host or cells: E. coli BL21* (DE3)
Source text: (§1) 11-175 (NP_065129.1), Mcl-1 a.a. […] For later BLI analysis, Bcl-B and Bfl-1 were genetically fused to C-terminal maltose-binding-protein with an avi-6his tag for improved solution properties. Codon usage was optimized for E. coli expression. […] The genes for individually-tested designed proteins were assembled from oligos (Hoover and Lubkowski, 2002) and cloned into pET29b (NdeI-XhoI sites) with C-terminal 6his tags for purification from E. coli, or cloned into PETCON (NdeI-XhoI sites; (Fleishman et al., 2011)) for yeast surface expression. Alternative tags were added using PCR methods. Point mutations were made by overlapping PCR (Procko et al., 2013). Error-prone PCR with an average error rate of 1.3 amino acid substitutions per clone used GeneMorph II Random Mutagenesis (Agilent Technologies).
(§2) Purified avi-6his-tagged ligands (20 μM) in reaction buffer (250 mM potassium glutamate, 20 mM Tris-Cl [pH 7.5], 50 mM bicine [pH 8.3], 10 mM ATP, 10 mM MgOAc, 100 μM d-biotin) were enzymatically biotinylated with 150 U/μl BirA (Avidity) at room temperature overnight, followed by purification with NiNTA-agarose and SEC. Biotinylated ligands were stored at 4° C. in 150 mM NaCl, 20 mM Tris-Cl (pH 7.5), 1 mM DTT, 0.02% sodium azide.
(§3) Data were collected on an Octet RED96 (Forte Bio) and processed using the instrument's integrated software. […] Biosensors were dipped in solutions containing the analyte of interest to measure association, and transferred back to empty binding buffer for monitoring dissociation. Kinetic constants were determined from the mathematical fit of a 1:1 binding model.

[1] = system: mitochondria from six EBV-positive and four EBV-negative cancer lines; assay: Cytochrome c release from isolated mitochondria, panel of cancer lines; assay type: cell-based, human; conditions: 10 μM
Procedure: (§4) Cells (˜10^9) were equilibrated in 5 ml of homogenization buffer (0.25 M sucrose, 1 mM EGTA, 10 mM HEPES/NaOH, 0.5% BSA, pH 7.4, Roche Complete protease inhibitors) for 5 min. Samples were kept on ice or at 4° C. until assayed. Cells were homogenized under N2 pressure (400 psi) in a steel disruption vessel (Parr Instrument Company) for 10 min, then centrifuged (750 g) for 10 min to remove intact cells. Supernatant was centrifuged again (12,000 g) for 12 min to collect mitochondria. The pellet was resuspended in 300 μl wash buffer (0.25 M sucrose, 1 mM EDTA, 10 mM Tris/HCl pH 7.4). Proteins at the indicated concentrations were incubated with mitochondria (25 μg mitochondrial protein based on BCA assay, Sigma) in 50 μl final volume of experimental buffer (125 mM KCl, 10 mM Tris-MOPS pH 7.4, 5 mM glutamate, 2.5 mM malate, 1 mM K-PO4, 10 μM EGTA-Tris pH 7.4) for 30 min at room temperature. Reaction solutions were centrifuged (18,000 g) for 10 min at 4° C. and cytochrome c release was quantified using a Cytochrome c ELISA kit (Life Technologies). Complete cytochrome c release was quantified by treatment with 0.5% Triton-X100.
(§5) Ramos, Ramos-AW, Daudi, Raji, DOHH2, JVM-2, and JVM-13 were grown in RPMI 1640 containing L-glutamine and 25 mM HEPES supplemented with 1% penicillin-streptomycin (GIBCO) and 10% fetal bovine serum (FBS, Invitrogen). […]

[2] = system: mitochondria isolated from Ramos-AW (EBV-positive) and Ramos (EBV-negative) cells; assay: Cytochrome c release from isolated mitochondria, Ramos-AW versus Ramos; assay type: cell-based, human; conditions: 30 min
Procedure: as §4, §5

Bfl-1 = target: T2, Bfl-1 (Homo sapiens, UniProt Q16548, C4S); assay: Bio-layer interferometry (BLI), immobilized Bfl-1; assay type: binding; set-up: Bfl-1 a.a; made in house; host or cells: E. coli BL21* (DE3); conditions: lower bound in μM
T2 sequence (Q16548 1-153 C4S): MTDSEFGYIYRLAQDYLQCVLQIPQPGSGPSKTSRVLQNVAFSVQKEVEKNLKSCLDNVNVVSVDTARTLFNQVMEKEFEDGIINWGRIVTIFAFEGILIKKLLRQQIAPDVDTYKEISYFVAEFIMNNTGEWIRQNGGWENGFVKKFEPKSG
Source text: as §1, §2, §3

[3] = assay type: physicochemical; conditions: for unfolding behaviour in guanidinium hydrochloride: loss of CD signal at 222 nm
Procedure: CD spectra were recorded with a Model 420 spectrometer (AVIV Biomedical) or a J-1500 Circular Dichroism Spectrometer (JASCO). Unless stated otherwise, proteins were at 20 μM in PBS and data were collected at 25° C.

Bfl-1-dependent MEF line = assay: Long-term survival (colony) assay, Bfl-1-dependent MEFs; assay type: cell-based, mouse; conditions: seven day colony survival, doxycycline-induced expression
Source text: Mouse embryonic fibroblasts were generated from E13-E14.5 embryos derived from CreERT2/Bcl-x^fl/fl/Mcl-I^fl/fl C57BL/6 mice (Kelly et al., 2014) and immortalized (at passage 2-4) with SV40 large T antigen. Retroviral expression constructs in the pMIG vector (Murine Stem Cell Virus-IRES-GFP) expressing each FLAG-tagged pro-survival protein were transiently transfected using LIPOFECTAMINE™ (Invitrogen), into Phoenix ecotropic packaging cells. Filtered virus-containing supernatants were used to infect the MEFs by spin inoculation as previously described (Lee et al., 2008). Cells stably expressing each pro-survival protein were selected by sorting GFP^+ve cells 24 hours after spin inoculation and protein expression verified by Western blotting using an anti-FLAG antibody. Following verification of exogenous pro-survival protein expression, each cell line was treated with 1 μM Tamoxifen (Sigma-Aldrich) to enable deletion of endogenous Mcl-1 and Bcl-xL. Deletion of endogenous Mcl-1 and Bcl-xL was shown by Western blotting using anti-Mcl-1 (Rockland Clone, 600-401-394) and anti-Bcl-xL (BD Transduction Laboratories Clone 44/Bcl-x) antibodies. Cells were maintained in DME Kelso medium supplemented with 10% (v/v) fetal bovine serum, 250 mM L-asparagine and […] 2-mercaptoethanol.
Inducible αMCL1 and αBFL1 constructs were generated in a lentiviral vector described in Aubrey et al. (2015). […]

colon cancer cell lines = assay: Long-term survival assay, colon cancer cell lines; assay type: cell-based, human; conditions: long-term survival assay
Procedure: Inducible αMCL1 and αBFL1 constructs were generated in a lentiviral vector described in Aubrey et al. (2015). Ligand expression is linked via the T2A peptide to mCherry™ fluorescent reporter protein. […] Viral supernatants were then filtered prior to target cell transduction. […] For infection of MEFs and colon cancer cell lines, equal volume of virus-containing supernatant was added to target cells pre-incubated with 10 ng/μL polybrene, and centrifuged at 2500 rpm for 2 hours at 32° C. Following spin inoculation, cells were then incubated overnight at 37° C. Cells expressing the doxycycline-inducible constructs were then selected by sorting mCherry^+ve cells. MEFs were maintained in DME Kelso medium supplemented with 10% (v/v) FBS, 250 mM L-asparagine and […] 2-mercaptoethanol. Colon cancer cell lines were maintained in DMEM/F-12 supplemented with 10% (v/v) FBS.
MEF and colon cancers were seeded in 6-well tissue culture plates in 2 mL culture media at 150 cells per mL. The next day and every 48 hours following, doxycycline was added at a final concentration of 1 μg/mL to each well, while nothing was added to control wells.

Bcl-B = target: T3, Bcl-B (Homo sapiens, UniProt Q9HD36); assay: Bio-layer interferometry (BLI), immobilized Bcl-B; assay type: binding; conditions: lower bound in μM
T3 construct: Bcl-B a.a; 11-175 (NP_065129.1); made in house; host or cells: E. coli BL21* (DE3)
T3 sequence (Q9HD36 11-175): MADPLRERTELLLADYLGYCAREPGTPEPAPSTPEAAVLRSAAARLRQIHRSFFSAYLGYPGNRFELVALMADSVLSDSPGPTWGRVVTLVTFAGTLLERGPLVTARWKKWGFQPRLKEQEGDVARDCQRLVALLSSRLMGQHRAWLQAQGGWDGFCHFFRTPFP
Source text: as §1, §2, §3

Bcl-2 = target: T4, Bcl-2 (Homo sapiens, UniProt P10415); assay: Bio-layer interferometry (BLI), immobilized Bcl-2; assay type: binding
T4 construct: human Bcl-2 a.a; made in house; host or cells: E. coli BL21* (DE3)
Source text: as §1
as §2, with “Biotinylated ligands were stored at 4° C. in 150 mM NaCl, 20 mM Tris-Cl (pH 7.5), 1 mM DTT, 0.02% sodium azide.” left out
Data were collected on an Octet RED96 (Forte Bio) and processed using the instrument's integrated software. […] Kinetic constants were determined from the mathematical fit of a 1:1 binding model.

T1 sequence (Q07820 172-327): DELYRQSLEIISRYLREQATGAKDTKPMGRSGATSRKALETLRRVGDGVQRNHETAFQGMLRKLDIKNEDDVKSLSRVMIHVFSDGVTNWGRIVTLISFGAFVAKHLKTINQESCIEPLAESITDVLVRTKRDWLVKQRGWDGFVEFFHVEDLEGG
Chain of BHRF1 (P03182 1-161): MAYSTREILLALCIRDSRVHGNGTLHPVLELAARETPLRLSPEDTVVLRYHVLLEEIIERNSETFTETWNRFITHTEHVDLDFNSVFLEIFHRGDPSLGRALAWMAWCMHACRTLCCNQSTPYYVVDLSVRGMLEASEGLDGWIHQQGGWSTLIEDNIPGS
T4 sequence (P10415 1-207): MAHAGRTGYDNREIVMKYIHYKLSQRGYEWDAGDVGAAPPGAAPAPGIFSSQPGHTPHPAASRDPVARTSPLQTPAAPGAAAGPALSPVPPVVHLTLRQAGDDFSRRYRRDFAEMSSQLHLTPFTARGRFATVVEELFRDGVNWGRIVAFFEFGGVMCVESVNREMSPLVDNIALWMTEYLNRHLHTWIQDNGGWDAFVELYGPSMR

B1: BbpD04.2: BbpD04.1 with four mutations: I21L, Q79L, I84Q and H104R (protein)
chain: ADWKKVLDKAKDIAENRVRELKQKLEEFYKEAMKLDLTQEMRRKLMLRWIAAMLMAIGDIFNAIRQAKQEADKLKKAGLVNSQQLDELKRRLEELKEEASRKCRDYGREFQLKLEY
- elution by SEC when mixed with BHRF1 (BHRF1; in solution): higher molecular weight (MW) complex
- state by SEC after purification from E. coli (BHRF1; protein alone): monodisperse and monomeric

B2: BINDI N62S: BINDI variant with N62S (protein)
chain: ADPKKVLDKAKDQAENRVRELKQKLEELYKEARKLDLTQEMRRKLELRYIAAMLMAIGDIYSAIRQAKQEADKLKKAGLVNSQQLDELKRRLEELKEEASRKARDYGREFQLKLEY
- change of affinity for Mcl-1 relative to BINDI (Mcl-1): diminished six-fold
- cytochrome c release ([1]; Raji and JVM-2): low levels of cytochrome c release
- cytochrome c release ([1]; Ramos-AW, Daudi, Granta 519, JVM-13): high cytochrome c release
- cytochrome c release, Ramos-AW compared with Ramos mitochondria [2]: enhanced apoptotic activity against EBV-positive Ramos-AW

B3: X-CDP07: SEQ ID NO: 47; target Bcl-xL (protein)
chain: ADPKKVLDKAKDRAENVVRKLKKELEELYKEARKLDLTQEMRDRIRLAAIAARIAAFGDIFHAIMEALEEARKLKKAGLVNSQQLDELKRRLEELDEEAAQRAEKLGKEFELKLEY
- Kd (Bfl-1): > 50 µM

B4: M-CDP05: SEQ ID NO: 32; target Mcl-1 (protein)
chain: ADPKKVLDKAKDQAENRVRELKQKLEELYKEARKLDLTQEERHRLETKALSALLAAIGDILDAIMQALQEAAKLKKAGLVNSQQLDELKRRLEELRKEASRKARDYGREFWLKLDY
- unfolding behaviour in guanidinium hydrochloride [3]: unfolded over broad denaturant concentration ranges

B5: FINDI: SEQ ID NO: 6; target Bfl-1 (protein)
chain: ADPKKVLDKAKDQAENRVRELKQKLEELYKEARKLDLTQEKRKKLEVATLGAVLAAHGDILNAIMQAKEEADKLKKAGLVNSQQLDELKRRLEELKEEALRKASDYGNEFHLKRRY
- protein stability relative to the original computational design [3]: slightly to moderately decreased
- decrease in survival (Bfl-1-dependent MEF line): 85±6%
- decrease in RKO cell survival (colon cancer cell lines): 63±4%

B6: 2-INDI: SEQ ID NO: 3; target Bcl-2 (protein)
chain: ADPKKVLDKAKDEAENRVRELKQRLEELYKEARKLDLTQEMRQELVDKARAASLQANGDIFYAILRALAEAEKLKKAGLVNSQQLDELKRRLEELAEEARRKAEKLRDEFRLKLEY
- Kd (Mcl-1): > 75 µM
- Kd (Bcl-B): > 75 µM
- protein stability relative to the original computational design [3]: slightly to moderately decreased
- Kd (Bfl-1): > 75 µM
- fold weaker affinity for the next tightest binding BCL2 family protein (target Bcl-2) (Bcl-2): > 2,000 fold

B7: XINDI: SEQ ID NO: 4; target Bcl-XL (protein)
chain: ADPKKVLDKAKDRAENVVRKLKKELEELYKEARKLDLTQEMRDRIRRTAIAARFQAHGDIFHAIKHAKEEARKLKKAGLVNSQQLDELKRRLRELDEEAEQRAEKLGKEFRLKLEY
- Kd (Mcl-1): > 50 µM
- Kd (Bcl-B): > 50 µM
- protein stability relative to the original computational design [3]: slightly to moderately decreased
- Kd (Bfl-1): > 50 µM

B8: WINDI: SEQ ID NO: 265; target Bcl-w (protein)
chain: DPKKVFDELKDRAENNVRRLKQKLEELYKEARKKDLTQEEREKLKTKYKTAMQLAALAAEGDIMNALLKARKLHKNGQVNEQQLEELARRLMELAKEAFQKAKDYANEFKYKLEY
- Kd (Mcl-1): > 25 µM
- Kd (Bcl-B): > 25 µM
- Kd (Bfl-1): > 25 µM

B9: M-CDP02: SEQ ID NO: 29; target Mcl-1 (protein)
chain: ADPKKVLDKAKDQAENRVRELKQELEELYKEARKLDLTQEERRKLEESYIAAMLRAIGDIFNAIMQAKNEADKLKKAGLVNSQQLDELRRRLEELRKEASLKAEDYGREFQEKLEY
- unfolding behaviour in guanidinium hydrochloride [3]: unfolded over broad denaturant concentration ranges
